T1: mouse TNFR2-Fc fusion protein (mouse, UniProt P25119 23-258, limits assumed)
T1 construct: also called mTNFR2-Fc; mTNFR2
T1 sequence (looked up): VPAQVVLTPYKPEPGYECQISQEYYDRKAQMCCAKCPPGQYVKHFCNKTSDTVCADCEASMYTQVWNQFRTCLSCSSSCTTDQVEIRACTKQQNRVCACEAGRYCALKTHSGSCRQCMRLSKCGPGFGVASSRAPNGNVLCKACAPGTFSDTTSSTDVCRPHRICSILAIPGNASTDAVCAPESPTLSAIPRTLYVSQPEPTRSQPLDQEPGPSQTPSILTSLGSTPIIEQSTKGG

T2: TNFR2 on BV-2 cells (UniProt P25119 23-474, limits assumed)
T2 sequence (looked up): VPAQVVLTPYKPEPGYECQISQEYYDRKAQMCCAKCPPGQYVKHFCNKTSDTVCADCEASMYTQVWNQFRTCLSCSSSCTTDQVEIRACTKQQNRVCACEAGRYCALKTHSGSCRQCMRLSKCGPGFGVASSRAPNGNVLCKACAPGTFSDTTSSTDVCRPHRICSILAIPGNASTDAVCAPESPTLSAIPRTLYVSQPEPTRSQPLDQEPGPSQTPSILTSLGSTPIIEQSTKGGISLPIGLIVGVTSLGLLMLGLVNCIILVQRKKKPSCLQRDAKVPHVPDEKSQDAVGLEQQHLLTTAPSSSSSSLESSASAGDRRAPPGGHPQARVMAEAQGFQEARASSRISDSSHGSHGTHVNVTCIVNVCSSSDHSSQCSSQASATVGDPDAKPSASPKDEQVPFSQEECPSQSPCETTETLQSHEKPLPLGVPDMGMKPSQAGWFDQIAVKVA

T3: human TNFR2-Fc fusion protein (human, UniProt P20333 23-257)
T3 construct: also called huTNFR2-Fc; huTNFR2
T3 sequence (looked up): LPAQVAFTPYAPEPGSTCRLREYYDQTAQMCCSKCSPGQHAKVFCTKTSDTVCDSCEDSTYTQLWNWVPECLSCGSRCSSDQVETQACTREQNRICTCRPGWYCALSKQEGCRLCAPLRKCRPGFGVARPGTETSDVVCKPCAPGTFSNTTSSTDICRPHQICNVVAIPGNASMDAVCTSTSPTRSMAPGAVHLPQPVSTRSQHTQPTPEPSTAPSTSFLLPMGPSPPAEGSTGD

T4: TNFR2 on human cells (Kym-1 cells; human CD3+ T cells) (human, UniProt P20333 23-461)
T4 sequence (looked up): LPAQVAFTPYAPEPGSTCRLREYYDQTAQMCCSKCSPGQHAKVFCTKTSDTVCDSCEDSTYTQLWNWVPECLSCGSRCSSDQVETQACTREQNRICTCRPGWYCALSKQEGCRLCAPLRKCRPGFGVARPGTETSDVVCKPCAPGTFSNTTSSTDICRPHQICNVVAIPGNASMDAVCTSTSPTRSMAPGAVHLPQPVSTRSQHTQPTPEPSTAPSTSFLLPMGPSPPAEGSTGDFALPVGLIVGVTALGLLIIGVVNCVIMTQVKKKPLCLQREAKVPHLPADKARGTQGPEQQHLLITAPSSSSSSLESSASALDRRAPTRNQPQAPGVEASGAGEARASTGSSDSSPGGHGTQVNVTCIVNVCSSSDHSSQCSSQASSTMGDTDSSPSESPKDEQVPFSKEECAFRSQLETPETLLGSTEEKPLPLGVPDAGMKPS

T5: TNFR2 on primary mouse cells (thymocytes and CD3+ T cells of C57BL/6 mice) (mouse, UniProt P25119 23-474)
T5 sequence (looked up): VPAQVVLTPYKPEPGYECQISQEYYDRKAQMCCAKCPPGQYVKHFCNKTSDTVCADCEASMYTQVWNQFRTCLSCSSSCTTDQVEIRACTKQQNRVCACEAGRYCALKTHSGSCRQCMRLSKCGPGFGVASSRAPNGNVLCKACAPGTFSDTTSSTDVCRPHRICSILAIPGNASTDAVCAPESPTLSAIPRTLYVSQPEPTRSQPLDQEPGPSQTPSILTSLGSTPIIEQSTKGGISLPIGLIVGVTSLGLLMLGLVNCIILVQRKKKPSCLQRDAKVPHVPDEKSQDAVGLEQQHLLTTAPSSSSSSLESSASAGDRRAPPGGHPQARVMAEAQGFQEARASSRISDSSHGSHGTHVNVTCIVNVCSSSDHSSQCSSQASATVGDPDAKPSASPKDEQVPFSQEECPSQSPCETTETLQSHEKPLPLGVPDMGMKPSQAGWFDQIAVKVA


What was measured:
[1] = target: T1, mouse TNFR2-Fc fusion protein; test: ELISA, mTNFR2-Fc coated at 1 µg/ml, bound protein detected with anti-TNF F6C5
Method: (§1) ELISA plates (Greiner, Frickenhausen, Germany) were coated with huTNFR1-Fc, mTNFR1-Fc, huTNFR2-Fc or mTNFR2-Fc fusion proteins at 1 μg/ml in PBS and incubated at 4° C. overnight. Residual binding sites were blocked with 2% skim milk powder in PBS at RT for 2 hours. ScTNFR2 and the complexes were diluted in 2% skim milk powder in PBS and added at concentrations in the range of 10⁻³ to 10 nM and incubated for 1 hour at RT. Between each step, non-bound proteins were removed by washing 4 times with 0.005% Tween-20 in PBS.
(§2) Bound proteins were detected with mouse monoclonal antibodies to TNF (clone F6C5; 1 μg/ml; incubation for 1 hour at RT) and HRP-conjugated anti-mouse IgG antibodies (diluted 1:10000; incubation for 1 hour at RT), followed by incubation with tetramethylbenzidine (TMB) substrate solution. Reaction was stopped by addition of 1 M H₂SO₄ and the absorbance at 450 nm was determined with a Multiskan FC absorbance reader (Thermo Scientific, Karlsruhe, Germany) and data were analyzed using the software Microsoft Excel and GraphPad Prism 4 (GraphPad, La Jolla, Calif.) (FIG. 5). In Table 3, the calculated EC₅₀ values for the binding of TNF, scTNFR2 and the complexes to immobilized huTNFR2 and mTNFR2 based on the ELISA assay are summarized.

TNFR2 on BV-2 cells = target: T2, TNFR2 on BV-2 cells; test: cell-based or functional assay
[2] = target: T3, human TNFR2-Fc fusion protein; test: quartz crystal microbalance (Attana Cell 200), human TNFR2-Fc immobilised at high density (270 Hz), 37° C
Method: (§3) Affinities of scTNFR2 and the complexes for human TNFR2-Fc were further determined by quartz crystal microbalance measurements using an Attana Cell 200 (Attana, Stockholm, Sweden). Human TNFR2-Fc was chemically immobilized on a carboxyl sensor chip according to the manufacturer's protocol at a high and low density, respectively. Binding experiments were performed in PBST buffer (PBS, 0.1% Tween 20, pH 7.4) with a flow rate of […] at 37° C. The chip was regenerated with 10 mM Glycine-HCl, pH 2.0. Before each measurement, a baseline was measured which was subtracted from the binding curve. Data were collected using the software provided by Attana for the particular device and analyzed by Attaché Office Evaluation software (Attana, Stockholm, Sweden) and TraceDrawer (Ridgview Instruments, Vange, Sweden) (FIG. 6). In Table 4, binding values for the binding of the hexavalent and dodecavalent mouse complexes to TNFR2 are summarized, which have been calculated based on quartz crystal microbalance measurements on a low density chip. In Table 5, binding values for the binding of the sc-mTNFR2 and the hexavalent and dodecavalent mouse proteins to TNFR2 are summarized, which have been calculated based on quartz crystal microbalance measurements on a high density chip.

[3] = target: T4, TNFR2 on human cells (Kym-1 cells; …); test: cell-based or functional assay
[4] = target: T3, human TNFR2-Fc fusion protein; test: quartz crystal microbalance (Attana Cell 200), human TNFR2-Fc immobilised at low density (130 Hz), 37° C
Method: as §3

[5] = target: T5, TNFR2 on primary mouse cells …; test: cell-based or functional assay
[6] = target: T3, human TNFR2-Fc fusion protein; test: ELISA, huTNFR2-Fc coated at 1 µg/ml, bound protein detected with anti-TNF F6C5
Method: as §1, §2

Row | Binder | EC50 [1] [nM] | EC50 values (nM) of Cxcl-2 secretion (BV-2 cells, ELISA) (TNFR2 on BV-2 cells) [nM] | Kd [2] [nM] | koff [2] [s⁻¹] | kon [2] [M⁻¹ s⁻¹] | EC50 values (nM) of cell death induction using Kym-1 cells [3] [nM] | Kd [4] [nM] | koff [4] [s⁻¹] | kon [4] [M⁻¹ s⁻¹] | EC50 values (nM) of thymocyte proliferation induction (MTT assay) [5] [nM] | EC50 [6] [nM]
1 | mouse single-chain TNF variant (D221N/A223R, sc-mTNFR2) (ligand, Trivalent single chain; also called TNFR2-selective mouse TNF variant; trivalent (sc-mTNFR2)) SDKPVAHVVANHQVEEQLEWLSQRANALLANGMDLKDNQLVVPADGLYLVYSQVLFKGQGCPDYVLLTHTVSRFAISYQEKVNLLSAVKSPCPKDTPEGAELKPWYEPIYLGGVFQLEKGDQLSAEVNLPKYLNFRESGQVYFGVIALGGGGSSSDKPVAHVVANHQVEEQLEWLSQRANALLANGMDLKDNQLVVPADGLYLVYSQVLFKGQGCPDYVLLTHTVSRFAISYQEKVNLLSAVKSPCPKDTPEGAELKPWYEPIYLGGVFQLEKGDQLSAEVNLPKYLNFRESGQVYFGVIALGGGGSSSDKPVAHVVANHQVEEQLEWLSQRANALLANGMDLKDNQLVVPADGLYLVYSQVLFKGQGCPDYVLLTHTVSRFAISYQEKVNLLSAVKSPCPKDTPEGAELKPWYEPIYLGGVFQLEKGDQLSAEVNLPKYLNFRESGQVYFGVIAL | 1.55 | 1.07 | 0.449 | 0.000399 | 808000 | – | – | – | – | – | –
2 | GCN4-sc-mTNFR2 (mouse) (ligand, Dodecavalent tetramer of four subunits) not shown | 0.0452 | 0.03 | 0.0527 | 8.77e-05 | 1.67e+06 | 0.0057 | 16.1 | 0.0347 | 2.16e+06 | 0.0185 | –
3 | p53-scTNFR2 (human) (ligand) KKPLDGEYFTLQIRGRERFEMFRELNEALELKDAQAGKEPGAPGGGSGGGSGGGSGGGSGGGSGGSEFLASSRTPSDKPVAHVVANPQAEGQLQWLNRRANALLANGVELRDNQLVVPSEGLYLIYSQVLFKGQGCPSTHVLLTHTISRIAVSYQTKVNLLSAIKSPCQRETPEGAEAKPWYEPIYLGGVFQLEKGDRLSAEINRPDYLNFRESGQVYFGIIALGGGGSSSRTPSDKPVAHVVANPQAEGQLQWLNRRANALLANGVELRDNQLVVPSEGLYLIYSQVLFKGQGCPSTHVLLTHTISRIAVSYQTKVNLLSAIKSPCQRETPEGAEAKPWYEPIYLGGVFQLEKGDRLSAEINRPDYLNFRESGQVYFGIIALGGGGSSSRTPSDKPVAHVVANPQAEGQLQWLNRRANALLANGVELRDNQLVVPSEGLYLIYSQVLFKGQGCPSTHVLLTHTISRIAVSYQTKVNLLSAIKSPCQRETPEGAEAKPWYEPIYLGGVFQLEKGDRLSAEINRPDYLNFRESGQVYFGIIAL | – | – | – | – | – | 0.0106 | – | – | – | – | 0.094
4 | EHD2-sc-mTNFR2 (mouse) (ligand, Hexavalent dimer of two subunits; also called hexavalent (EHD2-sc-mTNFR2)) DFTPPTVKILQSSCDGGGHFPPTIQLLCLVSGYTPGTINITWLEDGQVMDVDLSTASTTQEGELASTQSELTLSQKHWLSDRTYTCQVTYQGHTFEDSTKKCADSNGGGSGGGSGGGSGGGSGGGSGGSGIRSDKPVAHVVANHQVEEQLEWLSQRANALLANGMDLKDNQLVVPADGLYLVYSQVLFKGQGCPDYVLLTHTVSRFAISYQEKVNLLSAVKSPCPKDTPEGAELKPWYEPIYLGGVFQLEKGDQLSAEVNLPKYLNFRESGQVYFGVIALGGGGSSSDKPVAHVVANHQVEEQLEWLSQRANALLANGMDLKDNQLVVPADGLYLVYSQVLFKGQGCPDYVLLTHTVSRFAISYQEKVNLLSAVKSPCPKDTPEGAELKPWYEPIYLGGVFQLEKGDQLSAEVNLPKYLNFRESGQVYFGVIALGGGGSSSDKPVAHVVANHQVEEQLEWLSQRANALLANGMDLKDNQLVVPADGLYLVYSQVLFKGQGCPDYVLLTHTVSRFAISYQEKVNLLSAVKSPCPKDTPEGAELKPWYEPIYLGGVFQLEKGDQLSAEVNLPKYLNFRESGQVYFGVIAL | 0.112 | 0.44 | 0.0615 | 3.74e-05 | 607000 | 0.453 | 118 | 0.063 | 533000 | 0.07 | –
5 | p53-sc-mTNFR2 (mouse) (ligand, Dodecavalent tetramer of four subunits) KKPLDGEYFTLQIRGRERFEMFRELNEALELKDAQAGKEPGAPGGGSGGGSGGGSGGGSGGGSGGSGIRSDKPVAHVVANHQVEEQLEWLSQRANALLANGMDLKDNQLVVPADGLYLVYSQVLFKGQGCPDYVLLTHTVSRFAISYQEKVNLLSAVKSPCPKDTPEGAELKPWYEPIYLGGVFQLEKGDQLSAEVNLPKYLNFRESGQVYFGVIALGGGGSSSDKPVAHVVANHQVEEQLEWLSQRANALLANGMDLKDNQLVVPADGLYLVYSQVLFKGQGCPDYVLLTHTVSRFAISYQEKVNLLSAVKSPCPKDTPEGAELKPWYEPIYLGGVFQLEKGDQLSAEVNLPKYLNFRESGQVYFGVIALGGGGSSSDKPVAHVVANHQVEEQLEWLSQRANALLANGMDLKDNQLVVPADGLYLVYSQVLFKGQGCPDYVLLTHTVSRFAISYQEKVNLLSAVKSPCPKDTPEGAELKPWYEPIYLGGVFQLEKGDQLSAEVNLPKYLNFRESGQVYFGVIAL | 0.0744 | 0.13 | 0.0437 | 2.69e-05 | 616000 | 0.0562 | 50.9 | 0.0651 | 1.28e+06 | 0.065 | –

From patent US20210395323A1 (UNIVERSIT T STUTTGART, published 2021)
